# Reference: FireProtDB (doi:10.1006/jmbi.2001.5050)
# B1: Cold shock protein CspB wild type, P41016 (protein)
# chain: MQRGKVKWFNNEKGYGFIEVEGGSDVFVHFTAIQGEGFKTLEEGQEVSFEIVQGNRGPQAANVVKL
# Settings: Bacillus caldolyticus, pH 7, CD, sodium cacodylate-HCl 100 mM, reversible: yes, whole UniProt chain shown
protein,measurement,setting,value
B1,denaturant m value,"25 °C, GdnHCl",1.77 kcal/mol/M
same,denaturant midpoint (higher = more stable),"25 °C, GdnHCl",2.68 M
same,unfolding free energy,"25 °C, GdnHCl",1.2 kcal/mol
same,unfolding free energy,"70 °C, Thermal, NaCl 2 M",2.2 kcal/mol
same,unfolding free energy,"70 °C, Thermal",1.08 kcal/mol
same,Tm,Thermal,76.9 °C
same,unfolding enthalpy (van 't Hoff),Thermal,58.6 kcal/mol
